# Numbering of substitutions follows the chain as printed. Several values for one entry are separate records, joined by “and”; a condition that tells them apart may be missing. Equal entries are not always repeated.
# B1: monoclonal antibody 1.20 (antibody, V domains shown)
# VH: QLQLQESGPGLVKPSETLSLTCTVSGGSISSSNYYWGWIRQPPGKGLEWIGTIYYTGSTYYNPSLKSRVTISVDTSKNQFSLKLSSVTAADTAVYYCARHHWVFDYWGQGTLVTVSS
# VL: DIQMTQSPSSVSASVGDRVTITCRASQGISSWLAWYQQKPGKAPKLLIYAASSLQSGVPSRFSGSGSGTDFTLTISSLQPEDFATYYCQRTNSFPRTFGQGTKVEIK
# B2: monoclonal antibody 1.14.1 (antibody, V domains shown)
# VH: B1 VH with G27D, S32F, N33I, T56S, S85R, L112Q
# VL: DIVLTQFPDFQSVTPKEKVTITCRASQVIGSSLHWYQQKPDQSPKLLIKYASQSFSGVPSRFSGSGSGTDFTLTINSLEVEDAATYYCHQSTILPWTFGQGTKVEVK
# B3: monoclonal antibody 1.100.1 (antibody, V domains shown)
# VH: B1 VH with S28F, N33S, T56S, S58T, P63S, K77Q
# VL: EVVLTQSPDFQSVTPKEKITITCRASQIIGTSLHWYQKKPDQSPKLLIKYASQSFSGVPSRFSGSGSGTEFTLTINSLEAEDTATYYCHQSTNLPWTFGQGTKVEIK
# B4: monoclonal antibody 1.96 (antibody, V domains shown)
# VH: EVQLVESGGGLVQPGGSLRLSCAASGFTFSSYWMSWVRQAPGKGLEWVANIKQDGSEKYYVDSVKGRFTISRDNAKNSLYLQMNSLRAEDTAVYYCARWGVFGSGSYYIPFDYWGQGTLVTVSS
# VL: DIQMTQSPSSLSASVGDRVTITCRASHSITRYINWYQQKPGKAPNLLIYAASSLQSGVPSRFSGSGSGTDFTLTISSPQPEDFATYYCQQSYSSPPITFGQGTRLEIK
# B5: monoclonal antibody 1.43 (antibody, V domains shown)
# VH: QVQLVESGGGLVKPGGSLRLSCAASGFTFSDYYMNWIRQAPGKGLEWVSYISSSGSIIYYADSVKGRFTISRDNAKNSLYLQMNSLRAEDTAVYYCAREGRIAARGMDVWGQGTTVTVSS
# VL: DIQMTQSPSSLSASVGDRVSITCRPSQSFSRYINWYQQKPGKAPKLLIHAASSLVGGVPSRFSGSGSGTDFTLTISSLQPEDFATYYCQQTYSNPPITFGQGTRLEMK
# B6: monoclonal antibody 1.18.1 (antibody, V domains shown)
# VH: QVQLVESGGGVVQPGRSLRLSCAASGFTFSSYGMHWVRQAPGKGLEWVAVIWYDRSNKYYADSVKGRFTISRDNSKNTLYLQMDSLRAEDTAVYYCAGGRSRGAFDYWGQGTLVTVSS
# VL: DIQMTQSPSSLSASVGDRVTITCRASQGIRNYLAWFQQKPGKAPKSLIYAASSLQSGVPSTFSGSGSGTHFTLTISSLQPEDFASYFCQQYEIYPLTFGGGTKVEIK
# Columns and labels:
# [1] = molecular target: human ErbB2, full length, on cells (B300.19/hErbB2 clone #44; MCF7; BT474; SKBR3) (human)
# [2] = molecular target: human ErbB2, full length, on cells (B300.19/hErbB2 clone #44; MCF7; BT474; SKBR3) (human); remark: listed apart in the source
# [3] = molecular target: human ErbB2 ECD-myc/His fusion protein (human); assay: SPR, high resolution Biacore T100; mAb captured on goat anti-human IgG, hHer-2(ECD)cMyc injected; 1:1 fit
# [4] = molecular target: human ErbB2, full length, on cells (B300.19/hErbB2 clone #44; MCF7; BT474; SKBR3) (human); remark: listed apart in the source
# [5] = molecular target: human ErbB2, full length, on cells (B300.19/hErbB2 clone #44; MCF7; BT474; SKBR3) (human); remark: listed apart in the source
# [6] = molecular target: human ErbB2, full length, on cells (B300.19/hErbB2 clone #44; MCF7; BT474; SKBR3) (human); remark: listed apart in the source
# [7] = molecular target: human ErbB2 ECD-myc/His fusion protein (human); assay: SPR, medium resolution Biacore 2000; mAb captured on goat anti-human IgG, ErbB2(ECD)-cMyc/His injected; 1:1 fit
# [8] = molecular target: human ErbB2, full length, on cells (B300.19/hErbB2 clone #44; MCF7; BT474; SKBR3) (human); remark: listed apart in the source
# [9] = molecular target: human ErbB2 ECD-myc/His fusion protein (human); assay: limited antigen ELISA, 31 ng/ml antigen coated, supernatant 1:25, OD 450 nm
Molecule,"N1 % Inhibition @40 µg/ml, BT474 cell proliferation [1]","N1 EC50 (ng/ml), inhibition of BT474 cell proliferation [1]","N2 EC50 (ng/ml), inhibition of BT474 cell proliferation [1]","% inhibition @36 µg/ml, SKBR3 cell proliferation [2]","EC50 (ng/ml), inhibition of SKBR3 cell proliferation [2]","% Inhibition @10 µg/ml (n1), ErbB2 phosphorylation in BT474 cells at 48 hours [4]","EC50 (ng/ml) n1, inhibition of Heregulin-induced ErbB2 phosphorylation in MCF7 cells [5]","EC50 (ng/ml) n2, inhibition of Heregulin-induced ErbB2 phosphorylation in MCF7 cells [5]","% Inhibition @10 µg/ml, Heregulin-induced MCF7 cell proliferation [6]","EC50 (ng/ml), inhibition of Heregulin-induced MCF7 cell proliferation [6]",Kd [7],koff [7],kon [7],LA at 31 ng/ml [9],also measured
hIgG1 control antibody,-2%,> 40000 ng/mL,> 40000 ng/mL,2%,> 36000 ng/mL,,,,,,,,,,
chimeric anti-hErbB2 antibody 2C4,-9%,> 40000 ng/mL,4750 ng/mL,,> 36000 ng/mL,10%,43.6 ng/mL,14.6 ng/mL,90%,404 ng/mL,,,,,Kd [3]: 3.2 nM
Herceptin® (antibody),,,,,,5%,> 10000 ng/mL,> 10000 ng/mL,,> 10000 ng/mL,,,,,
B1,40%,85.3 ng/mL,12.8 ng/mL,49%,25.2 ng/mL,21%,15.5 ng/mL,17.4 ng/mL,100%,770 ng/mL,3.6 nM,0.000344 s⁻¹,95000 M⁻¹ s⁻¹,2.84 OD and 1.77 OD,24 hr pTyr inhibition % (line 1*19) [8]: 97%; 24 hr pTyr inhibition % (line 1*20) [8]: 96%
B2,38%,136 ng/mL,63 ng/mL,52%,35.7 ng/mL,37%,33.7 ng/mL,22.9 ng/mL,96%,640 ng/mL,2.5 nM,0.000256 s⁻¹,102000 M⁻¹ s⁻¹,3.99 OD,24 hr pTyr inhibition % (line 1*14) [8]: 100%
B3,35%,169 ng/mL,91.1 ng/mL,54%,61.3 ng/mL,37%,39.9 ng/mL,33.7 ng/mL,95%,2040 ng/mL,2.9 nM,0.000301 s⁻¹,104000 M⁻¹ s⁻¹,3.54 OD,24 hr pTyr inhibition % (line 1*100) [8]: 95%
B4,35%,131 ng/mL,66.3 ng/mL,43%,41.7 ng/mL,37%,28.8 ng/mL,34 ng/mL,98%,2830 ng/mL,2.6 nM,0.000273 s⁻¹,103000 M⁻¹ s⁻¹,,24 hr pTyr inhibition % (line 1*96) [8]: 99%; 24 hr pTyr inhibition % (line 1*99) [8]: 99%; 24 hr pTyr inhibition % (line 1*104) [8]: 73%; 24 hr pTyr inhibition % (line 1*107) [8]: 82%; 24 hr pTyr inhibition % (line 1*128) [8]: 98%; Kd [3]: 11.6 nM; koff [3]: 0.000194 s⁻¹; kon [3]: 16800 M⁻¹ s⁻¹
B5,,,,,,,> 10000 ng/mL,> 10000 ng/mL,53%,10000 ng/mL,,,,3.2 OD and 3.57 OD,24 hr pTyr inhibition % (line 1*41) [8]: 86%; 24 hr pTyr inhibition % (line 1*43) [8]: 82%
B6,34%,38.1 ng/mL,28.2 ng/mL,46%,26.3 ng/mL,24%,4.2 ng/mL,10.8 ng/mL,94%,415 ng/mL,3 nM,0.000302 s⁻¹,100000 M⁻¹ s⁻¹,3.03 OD,24 hr pTyr inhibition % (line 1*18) [8]: 96%
